T1: actin-binding domain 1 of human plastin 2 (human, UniProt P13796 120-375)
T1 sequence (looked up): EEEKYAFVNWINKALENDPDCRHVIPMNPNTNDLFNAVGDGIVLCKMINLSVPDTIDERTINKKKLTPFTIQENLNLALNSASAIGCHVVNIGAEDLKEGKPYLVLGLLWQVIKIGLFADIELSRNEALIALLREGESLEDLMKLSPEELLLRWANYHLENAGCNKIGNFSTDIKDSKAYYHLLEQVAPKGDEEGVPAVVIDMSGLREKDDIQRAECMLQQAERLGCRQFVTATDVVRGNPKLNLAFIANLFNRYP


Key:
[1] = target: F-actin (skeletal muscle actin, polymerised) ( (rabbit or chicken skeletal …, UniProt P68135 1-377)); assay: fluorescence polarisation
[2] = target: T1, actin-binding domain 1 of human plastin …; assay: fluorescence polarisation

Row | Kd [1] [nM] | Kd [2] [nM] | Binder
1 | ~4 |  | actin-binding domain 2 of human plastin 2, unlabeled (domain or fragment) TREERTFRNWMNSLGVNPRVNHLYSDLSDALVIFQLYEKIKVPVDWNRVNKPPYPKLGGNMKKLENCNYAVELGKNQAKFSLVGIGGQDLNEGNRTLTLALIWQLMRRYTLNILEEIGGGQKVNDDIIVNWVNETLREAKKSSSISSFKDPKISTSLPVLDLIDAIQPGSINYDLLKTENLNDDEKLNNAKYAISMARKIGARVYALPEDLVEVNPKMVMTVFACLMGKGMKRV
2 |  | 11.4 | fluorescein-maleimide-labeled actin-binding domain 2 of human plastin 2 (domain or fragment, UniProt P13796 394-627, looked up, labeled with fluorescein-5-maleimide (FM); labeled residue not stated) TREERTFRNWMNSLGVNPRVNHLYSDLSDALVIFQLYEKIKVPVDWNRVNKPPYPKLGGNMKKLENCNYAVELGKNQAKFSLVGIGGQDLNEGNRTLTLALIWQLMRRYTLNILEEIGGGQKVNDDIIVNWVNETLREAKKSSSISSFKDPKISTSLPVLDLIDAIQPGSINYDLLKTENLNDDEKLNNAKYAISMARKIGARVYALPEDLVEVNPKMVMTVFACLMGKGMKRV
